Measurements taken from patent US20240270821A1, “GIP/GLP1/GCG TRI-RECEPTOR AGONISTS AND USES THEREOF” (priority 2023, published 2024).

T1: human GIP receptor (human) (UniProt P48546)
T1 sequence (looked up): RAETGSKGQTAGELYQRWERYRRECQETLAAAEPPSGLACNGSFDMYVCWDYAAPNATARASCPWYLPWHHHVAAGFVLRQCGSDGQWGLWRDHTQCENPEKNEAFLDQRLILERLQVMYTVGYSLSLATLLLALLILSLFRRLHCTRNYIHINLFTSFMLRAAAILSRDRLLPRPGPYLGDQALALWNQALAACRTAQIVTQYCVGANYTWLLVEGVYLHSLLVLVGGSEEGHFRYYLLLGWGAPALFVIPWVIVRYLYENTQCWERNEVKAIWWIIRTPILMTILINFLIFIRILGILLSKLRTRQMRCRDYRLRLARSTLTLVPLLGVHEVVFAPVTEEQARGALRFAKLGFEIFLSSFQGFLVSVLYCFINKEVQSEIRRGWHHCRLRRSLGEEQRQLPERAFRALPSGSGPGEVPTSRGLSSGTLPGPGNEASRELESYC

B1: Example 170 (peptide)
chain: YXQGTFTSDFSXXLDKKAQXAFIEWLLEGGHSSGAPPPSGS
modifications: Lys acylated with AEEA-γGlu-C18 diacid; non-natural residues; C-amide; synthetic construct; SITE 2: note = 2-Aminoisobutyric Acid; SITE 12: note = L-ornithine; SITE 13: note = alpha-methyl-leucine; SITE 17: note = Lysine is chemically modified through conjugation of the epsilon-amino group of the Lysine side chain with (2-[2-(2-Amino-ethoxy)-ethoxy]-acetyl)-(gamma-Glu)
B2: Example 178 (peptide)
chain: YXQGTFTSDXSXXLDKKAQXAFIEYLLEXGPSSGAPPPSGS
modifications: Aib, F(4CN), Orn, αMeL; lipidated Lys; C-terminal amide; synthetic construct; SITE 2: note = 2-Aminoisobutyric Acid; SITE 10: note = 4-cyano-L-phenylalanine; SITE 12: note = L-ornithine; SITE 13: note = alpha-methyl-leucine; SITE 17: note = Lysine is chemically modified through conjugation of the epsilon-amino group of the Lysine side chain with (2-[2-(2-
B3: Example 180 (peptide)
chain: YXQGTFTSDFSXXLDKKAQXAFIEYLLEXGESSGAPPPSGT
modifications: Aib, Orn, αMeL, acylated K, C-terminal amide; synthetic construct; SITE 2: note = 2-Aminoisobutyric Acid; SITE 12: note = L-ornithine; SITE 13: note = alpha-methyl-leucine; SITE 17: note = Lysine is chemically modified through conjugation of the epsilon-amino group of the Lysine side chain with (2-[2-(2-Amino-ethoxy)-ethoxy]-acetyl)2-(gamma-Glu)
B4: Example 182 (peptide)
chain: YXQGTFTSDFSXXLDKKAQXAFIEYLLEXGHSSGAPPPSGT
modifications: Aib, Orn, alpha-methyl-Leu, lipidated Lys, C-terminal amide; synthetic construct; SITE 2: note = 2-Aminoisobutyric Acid; SITE 12: note = L-ornithine; SITE 13: note = alpha-methyl-leucine; SITE 17: note = Lysine is chemically modified through conjugation of the epsilon-amino group of the Lysine side chain with (2-[2-(2-Amino-ethoxy)-ethoxy]-acetyl)2-(gamma-Glu)
B5: Example 184 (peptide)
chain: YXQGTFTSDFSXXLDKKAQXAFIEYLLEXGXSSGAPPPSGT
modifications: non-natural residues, acylated Lys, C-terminal amide; synthetic construct; SITE 2: note = 2-Aminoisobutyric Acid; SITE 12: note = L-ornithine; SITE 13: note = alpha-methyl-leucine; SITE 17: note = Lysine is chemically modified through conjugation of the epsilon-amino group of the Lysine side chain with (2-[2-(2-Amino-ethoxy)-ethoxy]-acetyl)2-(gamma-Glu)
B6: Example 190 (peptide)
chain: YXQGTFTSDXSXXLDKKAQXAFIEYLLEXGHSSGAPPPSGS
modifications: Aib, F(4CN), Orn, αMeL; lysine acylated C18 diacid; amide; synthetic construct; SITE 2: note = 2-Aminoisobutyric Acid; SITE 10: note = 4-cyano-L-phenylalanine; SITE 12: note = L-ornithine; SITE 13: note = alpha-methyl-leucine; SITE 17: note = Lysine is chemically modified through conjugation of the epsilon-amino group of the Lysine side chain with (2-[2-(2-
B7: Example 191 (peptide)
chain: YXQGTFTSDXSXXLDKKAQXAFIEYLLEXGPSSGAPPPSGS
modifications: non-natural residues; lysine acylated AEEA-γGlu-C18 diacid; C-terminal amide; synthetic construct; SITE 2: note = 2-Aminoisobutyric Acid; SITE 10: note = 4-cyano-L-phenylalanine; SITE 12: note = L-ornithine; SITE 13: note = alpha-methyl-leucine; SITE 17: note = Lysine is chemically modified through conjugation of the epsilon-amino group of the Lysine side chain with (2-[2-(2-
B8: Example 194 (peptide)
chain: YXQGTFTSDFSXXLDKKAQXAFIEYLLEXGPSSGAPPPEGS
modifications: Aib, Orn, αMeL; acylated lysine; C-terminal amide; synthetic construct; SITE 2: note = 2-Aminoisobutyric Acid; SITE 12: note = L-ornithine; SITE 13: note = alpha-methyl-leucine; SITE 17: note = Lysine is chemically modified through conjugation of the epsilon-amino group of the Lysine side chain with (2-[2-(2-Amino-ethoxy)-ethoxy]-acetyl)2-(gamma-Glu)
B9: Example 195 (peptide)
chain: YXQGTFTSDFSXXLDKKAQXAFIEYLLEXGPSSGEPPPEGS
modifications: Lys acylated (AEEA)2-γGlu-C18 diacid; non-natural residues; C-terminal amide; synthetic construct; SITE 2: note = 2-Aminoisobutyric Acid; SITE 12: note = L-ornithine; SITE 13: note = alpha-methyl-leucine; SITE 17: note = Lysine is chemically modified through conjugation of the epsilon-amino group of the Lysine side chain with (2-[2-(2-Amino-ethoxy)-ethoxy]-acetyl)2-(gamma-Glu)
B10: Example 197 (peptide)
chain: YXQGTFTSDFSXXLDKKAQXAFIEYLLEGGPSSGAPPPGGT
modifications: non-natural residues; lipidated Lys; synthetic construct; SITE 2: note = 2-Aminoisobutyric Acid; SITE 12: note = L-ornithine; SITE 13: note = alpha-methyl-leucine; SITE 17: note = Lysine is chemically modified through conjugation of the epsilon-amino group of the Lysine side chain with (2-[2-(2-Amino-ethoxy)-ethoxy]-acetyl)-(gamma-Glu)
B11: Example 206 (peptide)
chain: YXQGTFTSDFSXXLDKKAQXAFIEYLLEAGPSSGAPPPEGE
modifications: Aib, Orn, αMeL, D-Ala; AEEA-γGlu-C18 diacid acyl; amide; synthetic construct; SITE 2: note = 2-Aminoisobutyric Acid; SITE 12: note = L-ornithine; SITE 13: note = alpha-methyl-leucine; SITE 17: note = Lysine is chemically modified through conjugation of the epsilon-amino group of the Lysine side chain with (2-[2-(2-Amino-ethoxy)-ethoxy]-acetyl)-(gamma-Glu)
B12: Example 207 (peptide)
chain: YXQGTFTSDFSXXLDKKAQXAFIEYLLEAGHSSGAPPPSGE
modifications: Aib, Orn, αMeL, D-Ala; lysine acylated C18 diacid; amide; synthetic construct; SITE 2: note = 2-Aminoisobutyric Acid; SITE 12: note = L-ornithine; SITE 13: note = alpha-methyl-leucine; SITE 17: note = Lysine is chemically modified through conjugation of the epsilon-amino group of the Lysine side chain with (2-[2-(2-Amino-ethoxy)-ethoxy]-acetyl)-(gamma-Glu)
B13: Example 210 (peptide)
chain: YXQGTFTSDFSXXLDKKAQXAFIEYLLEAGPSSGAPPPSGT
modifications: non-natural residues, lysine acylation, C-terminal amide; synthetic construct; SITE 2: note = 2-Aminoisobutyric Acid; SITE 12: note = L-ornithine; SITE 13: note = alpha-methyl-leucine; SITE 17: note = Lysine is chemically modified through conjugation of the epsilon-amino group of the Lysine side chain with (2-[2-(2-Amino-ethoxy)-ethoxy]-acetyl)-(gamma-Glu)
B14: Example 213 (peptide)
chain: YXQGTFTSDFSXXLDKKAQXAFIEYLLEAGPSSGAPPPSGT
modifications: non-natural residues, AEEA-γGlu-C18 diacid acylation; synthetic construct; SITE 2: note = 2-Aminoisobutyric Acid; SITE 12: note = L-ornithine; SITE 13: note = alpha-methyl-leucine; SITE 17: note = Lysine is chemically modified through conjugation of the epsilon-amino group of the Lysine side chain with (2-[2-(2-Amino-ethoxy)-ethoxy]-acetyl)-(gamma-Glu)
B15: Example 215 (peptide)
chain: YXQGTFTSDFSKXLDKKAQXAFIEYLIEGGESSGAPPPSGS
modifications: Lys acylated with AEEA-γGlu-C18 diacid; non-natural residues; C-amide; synthetic construct; SITE 2: note = 2-Aminoisobutyric Acid; SITE 13: note = alpha-methyl-leucine; SITE 17: note = Lysine is chemically modified through conjugation of the epsilon-amino group of the Lysine side chain with (2-[2-(2-Amino-ethoxy)-ethoxy]-acetyl)-(gamma-Glu)-CO-(CH2) 16-CO2H; SITE 20: n

What was measured:
Experiment in all cases: cell-based or functional assay
[1] = target: human glucagon receptor (human) (UniProt P47871)
Sequence of human glucagon receptor (human) (P47871 26-477): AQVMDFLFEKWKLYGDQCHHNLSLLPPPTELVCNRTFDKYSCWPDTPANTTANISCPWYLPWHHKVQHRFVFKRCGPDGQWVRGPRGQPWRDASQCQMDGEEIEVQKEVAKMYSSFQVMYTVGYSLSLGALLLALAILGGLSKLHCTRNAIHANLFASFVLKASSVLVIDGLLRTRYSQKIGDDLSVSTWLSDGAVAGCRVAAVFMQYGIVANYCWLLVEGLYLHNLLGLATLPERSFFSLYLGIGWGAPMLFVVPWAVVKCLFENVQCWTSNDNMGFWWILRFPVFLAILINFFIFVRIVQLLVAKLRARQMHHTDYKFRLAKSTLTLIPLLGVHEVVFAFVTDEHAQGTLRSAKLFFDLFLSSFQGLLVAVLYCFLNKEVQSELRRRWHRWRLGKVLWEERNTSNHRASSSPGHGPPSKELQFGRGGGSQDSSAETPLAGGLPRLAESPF

hGLP-1R = hGLP-1R (Homo sapiens, UniProt P43220)
Sequence of hGLP-1R (P43220 24-463): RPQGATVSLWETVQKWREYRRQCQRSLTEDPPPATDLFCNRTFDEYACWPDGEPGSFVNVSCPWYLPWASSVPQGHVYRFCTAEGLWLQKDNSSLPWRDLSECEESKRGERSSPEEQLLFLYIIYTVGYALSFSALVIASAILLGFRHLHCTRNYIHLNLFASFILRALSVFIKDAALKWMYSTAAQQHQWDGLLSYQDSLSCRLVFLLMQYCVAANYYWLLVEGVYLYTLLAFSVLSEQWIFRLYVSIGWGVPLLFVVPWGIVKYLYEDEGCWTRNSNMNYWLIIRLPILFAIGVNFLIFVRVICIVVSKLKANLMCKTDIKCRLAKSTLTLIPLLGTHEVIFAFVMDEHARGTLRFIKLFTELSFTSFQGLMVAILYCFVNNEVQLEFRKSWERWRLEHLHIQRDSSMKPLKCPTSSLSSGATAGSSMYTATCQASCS

[2] = target: T1, human GIP receptor (human)

| Binder | Relative cAMP EC50, nM (0.1% casein) [1] [nM] | cAMP Rel EC50, nM (1% HSA) [1] [nM] | Relative cAMP EC50, nM (0.1% casein) (hGLP-1R) [nM] | cAMP Rel EC50, nM (1% HSA) (hGLP-1R) [nM] | Relative cAMP EC50, nM (0.1% casein) [2] [nM] | cAMP Rel EC50, nM (1% HSA) [2] [nM] | Relative cAMP EC50 [1] [nM] | Relative cAMP EC50 (hGLP-1R) [nM] | Relative cAMP EC50 [2] [nM] |
| --- | --- | --- | --- | --- | --- | --- | --- | --- | --- |
| B1 | 5.29 | 1800 | 4.11 | 361 | 0.401 | 43.5 | – | – | – |
| B2 | 7.29 | – | 4.01 | – | 0.34 | – | – | – | – |
| B3 | 2.44 | 1320 | 5.08 | 891 | 0.14 | 24 | – | – | – |
| B4 | 5.33 | 1480 | 4.8 | 398 | 0.0781 | 9.95 | – | – | – |
| B5 | 5.23 | 1050 | 5.02 | 465 | 0.162 | 16.2 | – | – | – |
| B6 | 2.95 | 331 | 1.41 | 172 | 0.306 | 59.4 | – | – | – |
| B7 | 2.11 | – | 2.48 | – | 0.422 | – | – | – | – |
| B8 | 4.32 | 813 | 4.69 | 697 | 0.212 | 19.7 | – | – | – |
| B9 | 3.1 | 605 | 6.13 | 829 | 0.145 | 28.8 | – | – | – |
| B10 | – | 613 | – | 440 | – | 44.1 | 3.23 | 4.81 | 0.31 |
| B11 | – | 545 | – | 372 | – | 38.8 | 2.2 | 2.77 | 0.224 |
| B12 | – | 770 | – | 225 | – | 15.2 | 4.24 | 4.36 | 0.321 |
| B13 | – | – | – | – | – | – | 2.81 | 1.44 | 0.153 |
| B14 | – | – | – | – | – | – | 3.61 | 1.9 | 0.124 |
| B15 | – | 1510 | – | 162 | – | 87.3 | 9.77 | 0.803 | 0.418 |
